The supplement of paper PMC7125110
± gives the standard error. Variants at the floor of the assay were thinned out.

B1: glmS ribozyme (parent)
chain: AUAAAAGCGCCAGAACUACAGAAAUGUAGUUGACGAGGAGGAGGUUUAUCGAAUUUUCGGCGGAUGCCUCCAAA

Experiments:
Details in all cases: with glucosamine-6-phosphate
glucosamine-6-phosphate [1] = variants of: B1; experiment: self-cleavage kobs at 160 uM GlcN6P; higher = faster cleavage; RNA array
Method in brief: (§1)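 Weighted Michaelis–Menten fits across concentrations supplied kcat and KM, based on kobs from one- or two-exponential decay fits to normalised per-tile medians. The data came from barcoded ribozyme variants transcribed in situ by E. coli RNA polymerase on sequenced MiSeq chips and tracked at 37 °C by a hybridised Cy3 probe. Glucosamine-6-phosphate (40 μM to 10 mM) in HEPES/KCl/Mg(OAc)2 buffer was flowed in.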

glucosamine-6-phosphate [2] = variants of: B1; experiment: self-cleavage kobs at 640 uM GlcN6P; higher = faster cleavage; RNA array
Method in brief: as §1

glucosamine-6-phosphate [3] = variants of: B1; experiment: self-cleavage kobs at 2500 uM GlcN6P; higher = faster cleavage; RNA array
Method in brief: as §1

glucosamine-6-phosphate [4] = variants of: B1; experiment: self-cleavage kobs at 10000 uM GlcN6P; higher = faster cleavage; RNA array
Method in brief: as §1

Variant	self-cleavage kobs at 160 uM GlcN6P (glucosamine-6-phosphate [1]) [s⁻¹]	self-cleavage kobs at 640 uM GlcN6P (glucosamine-6-phosphate [2]) [s⁻¹]	self-cleavage kobs at 2500 uM GlcN6P (glucosamine-6-phosphate [3]) [s⁻¹]	self-cleavage kobs at 10000 uM GlcN6P (glucosamine-6-phosphate [4]) [s⁻¹]
A12G C58U G59A	< 1e-05			
C8U A12C A36G G37A	< 1e-05			
C16U C50U U69G	7.48e-05 ± 1.8e-05	7.53e-05 ± 1.8e-05	7.21e-05 ± 1.6e-05	
G13A G41C C67U	< 1e-05	< 1e-05	< 1e-05	
A33C G37A G63C	< 1e-05	< 1e-05	< 1e-05	
C8G C10U G51U A53U	< 1e-05	< 1e-05		
G32U G60U	< 1e-05	< 1e-05	< 1e-05	
A42C A53C	< 1e-05	< 1e-05		
C58U C68G	4.79e-05 ± 1.6e-05	0.000137 ± 2.7e-05	8.11e-05 ± 2e-05	
A52C U65A	< 1e-05	< 1e-05	< 1e-05	< 1e-05
A36U G40U	< 1e-05	< 1e-05		< 1e-05
G13U G35C G51C U54A C70U	< 1e-05		< 1e-05	
C10G U31C A48U C61A C70G	< 1e-05	< 1e-05		
U30G C50G C58G G60U C61G	0.000251 ± 7.4e-05	0.00014 ± 2.9e-05	0.00022 ± 6.9e-05	
C8G G40U C61A C71U	< 1e-05			
G32C A39C U45A U56G	< 1e-05			
G7C C8U A15G G35A	< 1e-05		< 1e-05	
C16A U54A C67A	4.32e-05 ± 1.9e-05	6.57e-05 ± 2.8e-05	0.000181 ± 4.8e-05	
A6C A12U G41A	< 1e-05	< 1e-05	< 1e-05	
G38U A42G	< 1e-05	< 1e-05		
G38U A42U	< 1e-05	< 1e-05		< 1e-05
C8U A39U U46C U56C G59U	< 1e-05	< 1e-05	< 1e-05	
A14U C34A G60A C61A	< 1e-05			< 1e-05
G32A A42G G43C G51U G66C	< 1e-05	< 1e-05		
A15C A39U A42C C67G	< 1e-05	< 1e-05	< 1e-05	
A14C A48U G60U	< 1e-05	< 1e-05		

Variant	self-cleavage kobs at 160 uM GlcN6P (glucosamine-6-phosphate [1]) [s⁻¹]	self-cleavage kobs at 640 uM GlcN6P (glucosamine-6-phosphate [2]) [s⁻¹]	self-cleavage kobs at 2500 uM GlcN6P (glucosamine-6-phosphate [3]) [s⁻¹]	self-cleavage kobs at 10000 uM GlcN6P (glucosamine-6-phosphate [4]) [s⁻¹]
A6G A33U U57C C58A	< 1e-05	< 1e-05		
G9C G40U	< 1e-05	< 1e-05	< 1e-05	< 1e-05
G35A A36U U55A	< 1e-05			
C16A G35C U47G	< 1e-05		< 1e-05	
A6U G9A U49C	< 1e-05			
C11A A33U G66A	< 1e-05	< 1e-05	< 1e-05	
G7U A14C A48U	< 1e-05	< 1e-05	< 1e-05	
G44A G51U	< 1e-05			< 1e-05
A36U G51C	< 1e-05	< 1e-05		< 1e-05
C8A G13U G35U C68G	0.000168 ± 3.8e-05			
U57G G62C A64U	< 1e-05		< 1e-05	< 1e-05
G35U C50U	< 1e-05			< 1e-05
C10G U45C	< 1e-05		< 1e-05	
C10G G44U C50U C61U	< 1e-05	< 1e-05		
A36U A64G C68G	7.51e-05 ± 3e-05			
G9C G51U	< 1e-05	< 1e-05		< 1e-05
G9U C10U U54G	< 1e-05			
G7A G43C	< 1e-05	< 1e-05	< 1e-05	< 1e-05
A36U U49G A52C	< 1e-05			
C8G G35A	< 1e-05			< 1e-05
G40A U55A	0.000151 ± 5.3e-05	0.00156 ± 0.0003	0.000842 ± 0.00022	
G7C U45A	< 1e-05	< 1e-05	< 1e-05	< 1e-05
C10G C11U C16A A33U C34U C50G C70U	4.84e-05 ± 2.3e-05	4.89e-05 ± 1.6e-05	6.14e-05 ± 2.5e-05	
G32U A48G G63C	< 1e-05		< 1e-05	
C8U G29U C34U U46G A53G	< 1e-05	< 1e-05	< 1e-05	
U31C G62U G66C	< 1e-05			

Variant	self-cleavage kobs at 160 uM GlcN6P (glucosamine-6-phosphate [1]) [s⁻¹]	self-cleavage kobs at 640 uM GlcN6P (glucosamine-6-phosphate [2]) [s⁻¹]	self-cleavage kobs at 2500 uM GlcN6P (glucosamine-6-phosphate [3]) [s⁻¹]	self-cleavage kobs at 10000 uM GlcN6P (glucosamine-6-phosphate [4]) [s⁻¹]
C8U G40U G43U	< 1e-05	< 1e-05	< 1e-05	
G7A G9U C50U	< 1e-05		< 1e-05	
C10A U69G	3.29e-05 ± 1.6e-05		0.000329 ± 8.6e-05	3.29e-05 ± 1.6e-05
G38U G43A C58G U65C	< 1e-05			
G35U C61U	< 1e-05	< 1e-05	< 1e-05	
C50U C70G	0.000293 ± 0.00013	8.51e-05 ± 1.6e-05	6.07e-05 ± 1.3e-05	
C16A G59U C68G	0.000107 ± 3e-05			
A14U U47C U49A	< 1e-05			
A12G G35A	< 1e-05	< 1e-05		< 1e-05
A12G G13C G29A C50G	0.00168 ± 0.00066		4.52e-05 ± 1.8e-05	
C34A G35C	< 1e-05		< 1e-05	
C10G U31C A33C G51U C71U	< 1e-05	< 1e-05		
A14C G38C	< 1e-05	< 1e-05	< 1e-05	< 1e-05
A15C A48C	< 1e-05			4.99e-05 ± 1.2e-05
C34A A64C C68U	< 1e-05	< 1e-05	< 1e-05	
A42G C50G A64G	< 1e-05			
A6G G9A	< 1e-05	< 1e-05	< 1e-05	< 1e-05
U30A A39C U55C	4.87e-05 ± 1.3e-05	0.00025 ± 4.5e-05	0.000864 ± 0.00021	
A33G A53C G59A	< 1e-05		< 1e-05	< 1e-05
U46G U49G G63A A64C	< 1e-05	< 1e-05	< 1e-05	
C8U G32U C50G	0.000945 ± 0.00017	0.000695 ± 0.00016	0.000269 ± 8.5e-05	
G9U A52C	< 1e-05		< 1e-05	
G13U A14U U57C	< 1e-05		< 1e-05	
A12G G35U A53U	< 1e-05			< 1e-05
A6G G9U G13C C34A	< 1e-05	< 1e-05	< 1e-05	
A15C G29U C67A	9.38e-05 ± 3.4e-05	0.000156 ± 2.9e-05	0.000163 ± 4.2e-05	

Variant	self-cleavage kobs at 160 uM GlcN6P (glucosamine-6-phosphate [1]) [s⁻¹]	self-cleavage kobs at 640 uM GlcN6P (glucosamine-6-phosphate [2]) [s⁻¹]	self-cleavage kobs at 2500 uM GlcN6P (glucosamine-6-phosphate [3]) [s⁻¹]	self-cleavage kobs at 10000 uM GlcN6P (glucosamine-6-phosphate [4]) [s⁻¹]
A53C U56A G59C G63U	< 1e-05	< 1e-05	< 1e-05	
C8U U47C A48C C67G	< 1e-05	< 1e-05	< 1e-05	
G35U A53U G60U	< 1e-05	< 1e-05		
A12C G63U	< 1e-05	< 1e-05		< 1e-05
G38C A42C	< 1e-05	< 1e-05	< 1e-05	< 1e-05
A15U G37U	< 1e-05			< 1e-05
A6U G32U	< 1e-05	< 1e-05	< 1e-05	
G7A A48U A53U U65A	< 1e-05	< 1e-05		
G29U G60U	< 1e-05	< 1e-05	< 1e-05	< 1e-05
G13U G37C U45C C68U	< 1e-05		< 1e-05	
A33C G59A	< 1e-05	< 1e-05	< 1e-05	
U30A U31C G60A C71A	< 1e-05			
A6G U47C U55C C71U	< 1e-05	< 1e-05	< 1e-05	
G13C A14U G32A	0.000741 ± 0.00017		0.00667 ± 0.0017	
A6C A15U C16U	< 1e-05			
A36G G41C A53U	< 1e-05	< 1e-05		
U57C G60U	< 1e-05	< 1e-05	< 1e-05	< 1e-05
G38A C61U C70G	< 1e-05			
U31G A33U G38U	< 1e-05			
G32U G51U	< 1e-05	< 1e-05		
U30A U56C G60U A64C	< 1e-05	< 1e-05		
G35C G60U G62C	< 1e-05	< 1e-05		
C10U A12C U31G A42G	< 1e-05			
C10U C11G A39C	< 1e-05	< 1e-05		
C8U G66C	< 1e-05	< 1e-05	< 1e-05	< 1e-05
